62 molecules from patent US20150031601A1 can be followed below.

The target in the assay is serum proteins. The experiment in a line: 90% serum, 30 kDa ultrafiltration, HPLC.

For the molecule GFCSYVCVYRNGVRVCYRRCN [SEQ ID NO: 7], the Protein binding (%) was determined as 68%. Molecule GFCGHVCVYRNGVRVCYRRCS [SEQ ID NO: 144] had a Protein binding (%) of 68%. As for GFCWYWCVYRNGVRVCYRRCN [SEQ ID NO: 20], the figure is 99%; as for GFCGHVCVYRNGVRRCYRRCN [SEQ ID NO: 155], 83%; as for GFCWNVCFYRNGVRVCHRRCN [SEQ ID NO: 272], 74%. For GFCWNVCVYRNGYRVCHRRCN [SEQ ID NO: 242], the Protein binding (%) came out at 83%. Regarding GFCFYVCVKRNGVRVCHRRCN [SEQ ID NO: 137], the Protein binding (%) was found to be 86%. As for GFCWNICVYRNGVRVCHRRCN [SEQ ID NO: 262], the figure is 88%; as for GFCWNVCVYRNGVRLCHRRCN [SEQ ID NO: 249], 83%. As for GFCWNFCVYRNGVRVCHRRCN [SEQ ID NO: 260], the figure is 84%; as for GFCWNLCVYRNGVRVCHRRCN [SEQ ID NO: 263], 80%; as for GFCWNVCVYRNGVRWCHRRCN [SEQ ID NO: 253], 94%. Molecule GFCGRVCVYRNGVRRCYRRCN [SEQ ID NO: 170] yielded a Protein binding (%) of 87%.

GFCWNACVKRNGVRVCYRRCN [SEQ ID NO: 258] had a Protein binding (%) of 89%. GFCWHVCHYRNSVRVCYRRCN [SEQ ID NO: 219]: the Protein binding (%) worked out at 99%. Consider GFCYNVCVYRNGVRRCYRRCN [SEQ ID NO: 207], for which the Protein binding (%) came out at 91%.

GFCWNVCVYRNGVRNCHRRCN [SEQ ID NO: 251] displayed a Protein binding (%) of 71%. As for GFCWNVCVYRQGVRVCHRRCN [SEQ ID NO: 233], the figure is 78%; as for GFCWNVCVYRNGVRVCHRRCR [SEQ ID NO: 289], 83%; as for GFCWNVCVYRNGVRICHRRCN [SEQ ID NO: 248], 58%. In turn, GFCWNVCVYRNRVRVCHRRCN [SEQ ID NO: 228] returned a Protein binding (%) of 86%. As to GFCYRVCVYRNGVRVCSRRCN [SEQ ID NO: 211], the Protein binding (%) worked out at 96%. For the molecule GFCWNVCVYRHGVRVCHRRCN [SEQ ID NO: 232], the Protein binding (%) was found to be 85%.

KFCWNVCVYRNGVRVCHRRCN [SEQ ID NO: 100] came in with a Protein binding (%) of 78%.

The molecule GFCWYVCVKRNGVRSCYRRCN [SEQ ID NO: 87] gave a Protein binding (%) of 93%. The molecule GFCWYSCVYRNGVRVCYRRCN [SEQ ID NO: 19] came in with a Protein binding (%) of 89%. The molecule GFCWNVCVYRNKVRVCHRRCN [SEQ ID NO: 227] registered a Protein binding (%) of 80%. GFCWNVCVYRNGVRYCHRRCN [SEQ ID NO: 254] came in with a Protein binding (%) of 77%. Then GFCWNVCVYRRGVRVCHRRCN [SEQ ID NO: 234], with 86%.

GFCWYVCVYKNGVRVCHRRCN [SEQ ID NO: 89] returned a Protein binding (%) of 90%. As for GFCTYVCVKRNGVRKCYRRCN [SEQ ID NO: 195], the figure is 95%; as for GFCARVCVYRNGVRSCYRRCN [SEQ ID NO: 122], 81%; as for GFCWNWCVYRNGVRVCHRRCN [SEQ ID NO: 267], 85%. In turn, GFCWNVCVYRNGVRVCHRRCH [SEQ ID NO: 282] yielded a Protein binding (%) of 82%. The molecule GFCYRVCVYRNGVRVCHRRCN [SEQ ID NO: 210] had a Protein binding (%) of 89%. Molecule GFCARVCVKRNGVRVCYRRCN [SEQ ID NO: 125] came in with a Protein binding (%) of 90%. On to MFCWNVCVYRNGVRVCHRRCN [SEQ ID NO: 101], for which the Protein binding (%) is 81%. Then GFCWNVCVYRNGVRVCHRRCG [SEQ ID NO: 281], with 66%; and GFCWNVCVYRNGVRVCHRRCK [SEQ ID NO: 284], with 72%; and GFCWNVCVYRNGARVCHRRCN [SEQ ID NO: 235], with 64%.

The molecule GFCAKVCVYRNGVRSCYRRCN [SEQ ID NO: 120] showed a Protein binding (%) of 69%.

In turn, GFCWKVCVYRNGVRVCYRRCN [SEQ ID NO: 10] gave a Protein binding (%) of 64%. As for GFCWYGCVYRNGVRVCYRRCN [SEQ ID NO: 15], the Protein binding (%) turned out to be 96%.

For GFCWNVCVYRNGVRRCHRRCN [SEQ ID NO: 252], the Protein binding (%) was found to be 76%.

As to GFCWNVCVYRNGRRVCHRRCN [SEQ ID NO: 239], the Protein binding (%) was 65%. GFCWNVCVYRNGVRGCHRRCN [SEQ ID NO: 246] registered a Protein binding (%) of 79%.

In turn, GFCGRVCVRRNGVRVCYRRCN [SEQ ID NO: 172] yielded a Protein binding (%) of 88%. The molecule GFCYRVCVYRNGVRTCYRRCN [SEQ ID NO: 209] registered a Protein binding (%) of 89%.

The molecule GFCWNVCVYRNGVRFCHRRCN [SEQ ID NO: 245] registered a Protein binding (%) of 85%. As for GFCWNVCVYRAGVRVCHRRCN [SEQ ID NO: 230], the figure is 71%. Molecule GFCWHVCVYRNGARSCYRRCN [SEQ ID NO: 213] gave a Protein binding (%) of 95%. Then GFCWYACVYRNGKRVCYRRCN [SEQ ID NO: 80], with 96%; and GFCWHVCARRNGVRVCYRRCN [SEQ ID NO: 218], with 99%.

As to GFCGRVCVYRNGVRTCYRRCN [SEQ ID NO: 171], the Protein binding (%) was 84%.

For HFCWNVCVYRNGVRVCHRRCN [SEQ ID NO: 98], the Protein binding (%) was determined as 77%. As for GFCWNVCVYRNGVRVCYRRCN [SEQ ID NO: 11], the figure is 73%; as for GFCWNVCVYRGGVRVCHRRCN [SEQ ID NO: 231], 66%.

GFCYKVCVYRNGVRSCYRRCN [SEQ ID NO: 206] came in with a Protein binding (%) of 86%. In turn, GFCWNVCVYRNGHRVCHRRCN [SEQ ID NO: 237] came in with a Protein binding (%) of 40%.

As to GFCWNVCVYRNYVRVCHRRCN [SEQ ID NO: 229], the Protein binding (%) was 91%. GFCWRVCVYRNGVRVCHRRCN [SEQ ID NO: 76] registered a Protein binding (%) of 92%. As for GFCWNVCLYRNGVRVCHRRCN [SEQ ID NO: 275], the figure is 80%.
